Consider 2 molecules from patent US20150004174A1.

Experiment [1] has as its target cynomolgus monkey PCSK9, V5-6xHis tagged (cynomolgus monkey). Kind of experiment: BIAcore SPR, antibody amine-coupled to CM5 chip, PCSK9 as analyte, pH 7.4.
The target is the same in experiment [2]. Kind of experiment: BIAcore solution equilibrium binding assay, free PCSK9 measured on immobilized 21B12.
Experiment [3] shares this target. Kind of experiment: KinExA solution equilibrium. (In general: Kinetic exclusion samples the free partner from a solution-phase mixture.)

B1: 21B12 human IgG4 (from hybridoma) (antibody, V domains shown)
VH: QVQLVQSGAEVKKPGASVKVSCKASGYTLTSYGISWVRQAPGQGLEWMGWVSFYNGNTNYAQKLQGRGTMTTDPSTSTAYMELRSLRSDDTAVYYCARGYGMDVWGQGTTVTVSS
VL: QSALTQPASVSGSPGQSITISCTGTSSDVGGYNSVSWYQQHPGKAPKLMIYEVSNRPSGVSNRFSGSKSGNTASLTISGLQAEDEADYYCNSYTSTSMVFGGGTKLTVLQ
In the case of B1, the Kd in experiment [1] is 0.36 nM; in experiment [2], 0.011 nM.

B2: 16F12 human IgG4 (antibody, V domains shown)
VH: QVHLVESGGGVVQPGRSLRLSCAASGFTFNSFGMHWVRQAPGKGLEWVALIWSDGSDEYYADSVKGRFTISRDNSKNTLYLQMNSLRAEDTAVYYCARAIAALYYYYGMDVWGQGTTVTVSS
VL: QSVLTQPPSVSAAPGQKVTISCSGSSSNIGNNFVSWYQQLPGTAPKLLIYDYNKRPSGIPDRFSGSKSGTSATLGITGLQTGDEADYYCGTWDSSLSAYVFGTGTRVTVLQ
On to B2, for which the dissociation constant Kd in experiment [3] turned out to be 0.016 nM; in experiment [1] it was 0.87 nM.

By Kd is commonly meant the equilibrium constant for the complex coming apart.
